Data taken from US10202593B2, “Evolved sortases and uses thereof” (President and Fellows of Harvard College, priority 2013, dated 2019).
Values joined by “and” are separate entries in the source; they are usually repeats but may differ in a detail not shown here. Identical values can stand only once. Like-named read-outs stand apart in the source and are kept apart here.

Tests used:
Type in all cases: biochemical
[1] = test system: LPETG (Abz-LPETGK(Dnp)-CONH2); assay: In vitro sortase kinetics HPLC assay, LPETG substrate
How it was run: (§1)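 Abz-LXEXGK(Dnp) peptides in 300 mM Tris pH 7.5, 150 mM NaCl, 5 mM CaCl2, 5% DMSO, GGG; 22.5° C., acid-quenched, converted fraction by reverse-phase HPLC peak areas. kcat and Km from eight substrate concentrations fit to Michaelis-Menten; KH at 1 mM substrate over eight GGG levels.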

[2] = test system: LPESG (Abz-LPESGK(Dnp)-CONH2); assay: In vitro sortase kinetics HPLC assay, LPESG substrate
How it was run: as §1

[3] = test system: LAETG (Abz-LAETGK(Dnp)-CONH2); assay: In vitro sortase kinetics HPLC assay, LAETG substrate; settings: for Km: read-out: Km
How it was run: as §1

[4] = GGG varied, substrate wt (LPETG)
[5] = GGG varied, substrate 4S (LPESG)

B1: eSrtA(4S-9): P94R, N98D, S102C, A104V, A118T, F122A, K134R, F144L, D160N, D165A, I182V, E189F, K190E, K196T (protein)
chain: QAKPQIPKDKSKVAGYIEIPDADIKEPVYPGPATREQLDRGVCFVEENESLDDQNISITGHTAIDRPNYQFTNLRAAKKGSMVYLKVGNETRKYKMTSIRNVKPTAVEVLDEQKGKDKQLTLVTCDDYNFETGVWETRKIFVATEVK
KH ([1]; 1 mM LPETG): 295 ± 19 µM
KN ([1]; 1 mM LPETG, eight GGG concentrations): 295 ± 19 µM
Km ([1]; 1 mM LPETG, read-out: Km,GGG): 98000 ± 13000 µM
Avg kcat (Hz) ([1]; Example 5 variants, substrate wt (LPETG)): 0.0468 Hz
Km ([1]; Example 5 variants, substrate wt (LPETG), read-out: Avg KM): 66.1 µM
Avg kHydro (Hz) [1, 4]: 0.000173 Hz
Avg kcat (Hz) [1, 4]: 0.05704 Hz
Km ([1]; KM for GGG, substrate wt (LPETG), read-out: Avg KM): 97600 µM
KH,LPETG ([1]; LPETG substrate): 295 ± 18 µM
Kcat (Hz) ([1]; Sub LPETG, 100 mM GGG): 0.047 ± 0.006 Hz
Km ([1]; Sub LPETG, 100 mM GGG, read-out: Km): 64.7 ± 4.2 µM
Rel. Activity ([1]; Sub LPETG, kcat/Km of the enzyme's preferred substrate relative to kcat/Km on this substrate): 25
Kcat (Hz) ([1]; Table 2, Sub LPETG): 0.047 ± 0.006 Hz
Km ([1]; Table 2, Sub LPETG, read-out: Km): 64.7 ± 4.2 µM
activity on LPETG ([1]; round 9 clones): minimally active on LPETG
Avg KH ([1]; substrate wt (LPETG)): 294.8601 µM
KH ([2]; 1 mM LPESG): 174 ± 32 µM
KN ([2]; 1 mM LPESG, eight GGG concentrations): 174 ± 32 µM
Km ([2]; 1 mM LPESG, read-out: Km,GGG): 69000 ± 12000 µM
Avg kcat (Hz) ([2]; Example 5 variants, substrate 4S (LPESG)): 2.146 Hz
Km ([2]; Example 5 variants, substrate 4S (LPESG), read-out: Avg KM): 123 µM
Avg kHydro (Hz) [2, 5]: 0.008016 Hz
Avg kcat (Hz) [2, 5]: 3.178 Hz
Km ([2]; KM for GGG, substrate 4S (LPESG), read-out: Avg KM): 69500 µM
KH (KH,LPESG) ([2]; LPESG substrate): 174 ± 32 µM
Kcat (Hz) ([2]; Sub LPESG, 100 mM GGG): 2.05 ± 0.15 Hz
Km ([2]; Sub LPESG, 100 mM GGG, read-out: Km): 113 ± 12 µM
Rel. Activity ([2]; Sub LPESG, kcat/Km of the enzyme's preferred substrate relative to kcat/Km on this substrate): 1
Kcat (Hz) ([2]; Table 2, Sub LPESG): 2.05 ± 0.15 Hz
Km ([2]; Table 2, Sub LPESG, read-out: Km): 113 ± 12 µM
change in specificity for LPESG versus LPETG relative to eSrtA ([2]; ratio of (kcat/KM)target to (kcat/KM)LPETG, relative to eSrtA): 120 fold and 125 fold
preference for LPESG over LPETG ([2]; ratio of kcat/KM): 25 fold
Specificity ([2]; ratio of kcat/KM, 4S (LPESG) over wt (LPETG)): 24.953
Avg KH ([2]; substrate 4S (LPESG)): 173.5925 µM
activity on LAETG [3]: negligible activity
Kcat (Hz) ([3]; Sub LAETG, 100 mM GGG): 0.0078 ± 0.0006 Hz
Km ([3]; Sub LAETG, 100 mM GGG): 387 ± 49 µM
Rel. Activity ([3]; Sub LAETG, kcat/Km of the enzyme's preferred substrate relative to kcat/Km on this substrate): 898
Kcat (Hz) ([3]; Table 2, Sub LAETG): 0.0078 ± 0.0006 Hz
Km ([3]; Table 2, Sub LAETG): 387 ± 49 µM
